Non-standard residues stand in square brackets, D forms with d. hArg = N=C(N)NCCCC[C@H](N)C(=O)O
Molecular target: T1, murine E^d MHC class II allele (Mus musculus, UniProt P01904+P01915)
T1 sequence (P01904 26-255): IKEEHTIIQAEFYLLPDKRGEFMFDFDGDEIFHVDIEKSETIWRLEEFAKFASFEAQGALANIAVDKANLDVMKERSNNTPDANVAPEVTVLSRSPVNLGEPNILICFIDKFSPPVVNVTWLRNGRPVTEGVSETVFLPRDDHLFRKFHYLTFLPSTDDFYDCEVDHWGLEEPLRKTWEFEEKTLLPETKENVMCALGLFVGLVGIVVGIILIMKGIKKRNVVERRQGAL
T1 sequence (P01915 27-264 limits assumed): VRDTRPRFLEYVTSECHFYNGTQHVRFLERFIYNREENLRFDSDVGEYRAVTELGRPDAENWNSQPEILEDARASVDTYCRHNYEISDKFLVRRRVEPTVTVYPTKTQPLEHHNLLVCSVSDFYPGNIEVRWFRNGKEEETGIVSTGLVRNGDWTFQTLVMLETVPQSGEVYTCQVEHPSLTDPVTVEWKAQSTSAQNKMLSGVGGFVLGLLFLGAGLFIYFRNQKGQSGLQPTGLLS
Test: processed antigen assay, E^d allele (APC pulsed with native HEL)
Type: cell-based
Design: The A20 and CH27 B cell lymphoma lines express H-2^d and H-2^k alleles, respectively; endogenous in cells; host or cells: A20 B cell lymphoma (mitomycin C-treated or paraformaldehyde-fixed)
Details: AE peptide 64 μM; for T cell response relative to baseline (None = 1.0), 5 μM HEL E^d, first value / T cell response relative to baseline (None = 1.0), 5 μM HEL E^d, second value / T cell response relative to baseline (None = 1.0), 10 μM HEL E^d, first value / T cell response relative to baseline (None = 1.0), 10 μM HEL E^d, second value / T cell response relative to baseline (None = 1.0), 20 μM HEL E^d, first value / T cell response relative to baseline (None = 1.0), 20 μM HEL E^d, second value: Table 29; for T cell response relative to baseline (None = 1.0), 5 μM HEL E^d, first value / T cell response relative to baseline (None = 1.0), 5 μM HEL E^d, second value: native HEL prepulse 5 μM; for T cell response relative to baseline (None = 1.0), 5 μM HEL E^d, first value / T cell response relative to baseline (None = 1.0), 10 μM HEL E^d, first value / T cell response relative to baseline (None = 1.0), 20 μM HEL E^d, first value: supernatant dilution 1:4 (first value); for T cell response relative to baseline (None = 1.0), 5 μM HEL E^d, second value / T cell response relative to baseline (None = 1.0), 10 μM HEL E^d, second value / T cell response relative to baseline (None = 1.0), 20 μM HEL E^d, second value: supernatant dilution 1:8 (second value); for T cell response relative to baseline (None = 1.0), 10 μM HEL E^d, first value / T cell response relative to baseline (None = 1.0), 10 μM HEL E^d, second value / T cell response relative to baseline (None = 1.00), E^d: native HEL prepulse 10 μM; for T cell response relative to baseline (None = 1.0), 20 μM HEL E^d, first value / T cell response relative to baseline (None = 1.0), 20 μM HEL E^d, second value: native HEL prepulse 20 μM; for T cell response relative to baseline (None = 1.00), E^d: Table 31, supernatant dilution 1:4
Method: In a third type of assay, the “processed antigen assay”, certain of the AE101 series of peptides inhibit stimulation of specific T cell hybridomas by antigenic peptides which are derived from the endogenous processing of a native protein antigen. This assay, which is related to the peptide prepulse assay, is performed by incubating APC with native protein antigen for 8 h, after which the pulsed APC are washed and treated with mitomycin C. Those pulsed APC are then combined with AE101 series peptides and T cell hybridomas and are incubated for 24 h. After that incubation, an aliquot of the culture supernatant is transferred to a second culture to measure T cell stimulation, as reflected in the effect of released interleukins on the growth of an interleukin-dependent, indicator cell line. During the 8 h incubation with native protein antigen, the protein antigen is taken into the APC. The native protein enters the processing pathway within the APC, where it is enzymatically cleaved to peptide fragments. Those peptide fragments with high affinity for the particular MHC class II molecules produced by the APC form antigenic peptide/MHC class II complexes which are transported to the cell surface. At the cell surface, the MHC class II molecules are contacted by the AE101 peptides, which cause the release of the antigenic peptide by the same mechanism proposed for the “peptide prepulse” assay above.
The “processed antigen assay” was carried out under essentially the same conditions as the “peptide prepulse assay”, with the following modifications. Untreated APC were incubated at 1×10^6/mL in 24-well plates (1 mL/well) with native protein antigen for 8 h. Following that incubation, the pulsed APC were washed, treated with mitomycin C, and washed again. AE101 series peptide was added at 64 μM, 16 μM, 4 μM, and 1 μM concentrations for 24 h in the presence of the T cell hybridoma specific for the antigenic peptide. Interleukin release from these cultures was measured by proliferation of HT-2 cells to interleukins in supernatants transferred from the primary culture. The baseline T cell response was measured by culturing T hybridoma cells with the native antigen-prepulsed APC in the absence of AE101 series peptides.
The “processed antigen assay” was carried out under essentially the same conditions as the “peptide prepulse” assay, with the following modifications. Untreated APC were incubated at 1×10^6/mL in 24-well plates (1 mL/well) with native protein antigen for 8 h. Following incubation, the pulsed APC were washed, treated with mitomycin C, and were washed again. The assay conditions were then as described for “peptide prepulse” above. The baseline T cell response was measured by culturing T hybridoma cells with the native antigen-prepulsed APC in the absence of AE101 peptides.
Table 2.9: Activities of substitution series at Leucine^80 in AE114 in a processed antigen assay. […] The results in this assay constitute, relatively, a mirror image of the result in the simultaneous assay (Example 1, Table 7) and parallel those of the antigenic peptide prepulse assay (Example 5, Table 24). Untreated APC were incubated with native HEL, instead of antigenic peptide, for 8 h. After incubation, the pulsed cells were washed and mitomycin C treated before being cocultured with AE-peptides and T cell hybridomas. Wells containing only T cells and native HEL-prepulsed APC were used to determine the Baseline response, or 1, in the absence of AE peptides. The concentration of AE peptide used was 64 μM for these assays. The supernatant dilutions used in the HT-2 cell assay were 1:4 (first value) and 1:8 (second value).

Substance	T cell response relative to baseline (None = 1.0), 5 μM HEL E^d, first value	T cell response relative to baseline (None = 1.0), 5 μM HEL E^d, second value	T cell response relative to baseline (None = 1.0), 10 μM HEL E^d, first value	T cell response relative to baseline (None = 1.0), 10 μM HEL E^d, second value	T cell response relative to baseline (None = 1.0), 20 μM HEL E^d, first value	T cell response relative to baseline (None = 1.0), 20 μM HEL E^d, second value	T cell response relative to baseline (None = 1.00), E^d
Ac-LRMK F PK-NH2 (Ac-LRMKFPK-NH2) [AE234]	0.51,	0.62	0.65,	0.60	0.98,	0.88	
Ac-LRMK H PK-NH2 (Ac-LRMKHPK-NH2) [AE228]	0.35,	0.45	0.41,	0.41	0.71,	0.61	
Ac-LRMK HArg PK-NH2 (Ac-LRMK[hArg]PK-NH2; SMILES CSCC[C@H](NC(=O)[C@H](CCCNC(=N)N)NC(=O)[C@H](CC(C)C)NC(C)=O)C(=O)N[C@@H](CCCCN)C(=O)N[C@@H](CCCCNC(=N)N)C(=O)N1CCC[C@H]1C(=O)N[C@@H](CCCCN)C(N)=O) [AE227]	0.18,	0.33	0.18,	0.19	0.45,	0.36	0.35
Ac-LRMK K PK-NH2 (Ac-LRMKKPK-NH2) [AE229]	0.38,	0.58	0.55,	0.49	0.71,	0.62	
Ac-LRMK M PK-NH2 (Ac-LRMKMPK-NH2) [AE236]	0.41,	0.58	0.56,	0.53	0.76,	0.72	
Ac-LRMK N PK-NH2 (Ac-LRMKNPK-NH2) [AE232]	0.50,	0.50	0.68,	0.61	0.97,	0.83	0.46
Ac-LRMK Q PK-NH2 (Ac-LRMKQPK-NH2) [AE233]	0.48,	0.36	0.53,	0.47	0.74,	0.68	
